T1: dimeric hIL-4R-hFc (human, UniProt P24394 26-232)
T1 construct: also called hIL-4R-Fc; not shown: human Fc (hFc)
T1 sequence: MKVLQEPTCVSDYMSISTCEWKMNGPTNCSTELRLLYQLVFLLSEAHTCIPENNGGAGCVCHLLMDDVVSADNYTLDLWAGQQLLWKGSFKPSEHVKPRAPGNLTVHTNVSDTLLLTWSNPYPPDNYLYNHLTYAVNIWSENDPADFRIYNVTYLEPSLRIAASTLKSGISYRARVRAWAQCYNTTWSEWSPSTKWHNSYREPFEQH

T2: hIL-4R on cells (STAT6-transfected HEK293, TF1, TF1/A12) (human, UniProt P24394 26-825)
T2 sequence (looked up): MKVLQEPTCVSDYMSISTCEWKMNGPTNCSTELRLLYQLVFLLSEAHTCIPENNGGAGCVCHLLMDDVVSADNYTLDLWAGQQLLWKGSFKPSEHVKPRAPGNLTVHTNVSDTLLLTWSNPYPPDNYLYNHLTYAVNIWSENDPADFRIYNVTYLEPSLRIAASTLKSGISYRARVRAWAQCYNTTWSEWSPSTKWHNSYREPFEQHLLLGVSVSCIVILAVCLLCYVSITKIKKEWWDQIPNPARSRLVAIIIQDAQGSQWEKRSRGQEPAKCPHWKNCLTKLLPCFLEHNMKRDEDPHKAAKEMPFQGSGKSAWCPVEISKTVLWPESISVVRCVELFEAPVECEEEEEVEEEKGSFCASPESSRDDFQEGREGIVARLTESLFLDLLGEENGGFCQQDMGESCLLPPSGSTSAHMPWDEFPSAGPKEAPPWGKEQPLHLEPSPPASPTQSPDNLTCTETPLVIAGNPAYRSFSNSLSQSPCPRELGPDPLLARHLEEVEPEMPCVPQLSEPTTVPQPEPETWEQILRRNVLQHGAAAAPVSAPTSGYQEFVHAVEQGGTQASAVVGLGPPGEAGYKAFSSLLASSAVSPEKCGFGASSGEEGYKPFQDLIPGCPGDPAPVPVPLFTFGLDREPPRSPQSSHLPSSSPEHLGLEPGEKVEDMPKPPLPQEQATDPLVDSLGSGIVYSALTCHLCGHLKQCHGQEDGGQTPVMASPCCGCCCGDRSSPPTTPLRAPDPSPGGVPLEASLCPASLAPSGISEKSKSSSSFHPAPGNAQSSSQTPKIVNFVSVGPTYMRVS

T3: monomeric hIL-4R (R&D Systems) (human, UniProt P24394 26-231)
T3 construct: Bought (R&D Systems); also called hIL-4R monomer
T3 sequence: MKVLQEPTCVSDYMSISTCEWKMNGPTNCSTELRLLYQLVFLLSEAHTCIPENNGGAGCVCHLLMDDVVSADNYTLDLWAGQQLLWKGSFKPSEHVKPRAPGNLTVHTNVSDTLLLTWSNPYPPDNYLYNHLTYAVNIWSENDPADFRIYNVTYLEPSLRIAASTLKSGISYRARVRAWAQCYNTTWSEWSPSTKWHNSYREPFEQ

T4: mouse IL-4R (mouse, UniProt P16382 26-233, limits assumed)
T4 sequence (looked up): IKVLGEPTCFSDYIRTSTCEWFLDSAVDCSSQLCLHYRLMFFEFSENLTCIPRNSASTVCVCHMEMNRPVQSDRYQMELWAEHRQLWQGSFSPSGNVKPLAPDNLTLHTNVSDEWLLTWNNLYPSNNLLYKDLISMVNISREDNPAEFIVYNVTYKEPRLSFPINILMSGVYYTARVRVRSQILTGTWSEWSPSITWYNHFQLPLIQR

B1: VAK9C6-11 (antibody, V domains shown)
VH: QVQLVESGGGVVQPGRSLRLSCAASGFTFSSYGMHWVRQAPGKGLEWVTVISYDGSIKYYVDSVKGRFTISRDNSKNTLFLQMNSLRVEDTAVYYCAKEGRKYGMDVWGQGTTVTVSS
VL: DIQMTQSPSTLSASVGDRVTITCRASQIISSLLVWYQQKPGKAPKLLIYKASSLESGVPSRFSGSGSGTEFTLTISSLQPDDFATYYCQQYHSYMYTFGQGTKLEIK
notes: Apparently tested with mouse constant region (anti-mouse IgG capture/detection)
B2: VAK12B11-9 (antibody, V domains shown)
VH: QVQLVESGGGVVQPGRSLRLSCAASGFTFSSYAMYWVRQAPGKGLEWVAVISYDGSNKYYTDSVKGRFTVSRDNSKNTLFLQMNSLRAEDTALYYCAKESSSYGLDVWGQGTTVTVSS
VL: B1 VL with T20A, I28S, S31N, L32W, V34A, Y49S, E55K, T85A, H92N, M95S
notes: as for B1
B3: VAK11D4-1 (antibody, V domains shown)
VH: QVRLVESGGGVVQPGRSLRLSCVASGFTFRSYGMHWVRQAPGRGLEWVAVISYDGSQTFYVDSVKVRFTISRDNSNNTLYLEMNSLRVDDTAVYFCVKEGRSGSWFDPWGQGTLVAVSS
VL: DIHMTQSPSSLSASVGDRVTITCRASQAINNYLAWFQQKPGRTPKSLIFATSSLQSGVPSRFSGSGSGTDFTLTISSLQPEDFATYYCQQYNSHPWTFGQGTKVEIK
notes: as for B1
B4: VAK10G6-7 (antibody, V domains shown)
VH: QVQLVESGGGVVQPGRSLRLSCTASGFTFSSFGMHWVRQAPGRGLEWVAVISYDGSKKYYADSVKVRFTISRDNSKNTLYLQMNSLRVDDTAVYFCAKEGRTGNWFDPWGQGTLVAVSS
VL: B3 VL with H3Q, R42K, S65T, K107R
notes: as for B1

Residue numbers refer to the chain shown, from its start.

The first assay deals with T1, dimeric hIL-4R-hFc. In words: SPR (BIAcore 2000); antibody captured, dimeric hIL-4R-hFc injected.
In turn, B1 registered a Kd of 0.068 nM and a T1/2 dimeric of 7 h.

B2: the affinity, expressed as Kd, was 0.036 nM and the T1/2 dimeric came out at 12 h.

Turning to B3, the affinity, expressed as Kd, was 0.006 nM and the T1/2 dimeric is 21 h.

In turn, B4 returned a Kd of 0.011 nM and a T1/2 dimeric of 24 h.

The target of a further assay is T2, hIL-4R on cells (STAT6-transfected …). In words: cell-based or functional assay.
On to B1, for which the “STAT6 Bioassay IC50 (HEK293 STAT6 luciferase, 10 pM hIL-4)” value is 0.48 nM and the “TF1 Bioassay IC50 (proliferation, 50 pM hIL-4)” value turned out to be 0.31 nM.

For the molecule B2, the “STAT6 Bioassay IC50 (HEK293 STAT6 luciferase, 10 pM hIL-4)” value came to 0.49 nM and the “TF1 Bioassay IC50 (proliferation, 50 pM hIL-4)” value was 0.57 nM.

As to B3, the “STAT6 Bioassay IC50 (HEK293 STAT6 luciferase, 10 pM hIL-4)” value stood at 0.2 nM and the “TF1 Bioassay IC50 (proliferation, 50 pM hIL-4)” value was 0.2 nM.

For B4, the “STAT6 Bioassay IC50 (HEK293 STAT6 luciferase, 10 pM hIL-4)” value turned out to be 0.11 nM and the “TF1 Bioassay IC50 (proliferation, 50 pM hIL-4)” value amounted to 0.23 nM.

A further assay deals with T3, monomeric hIL-4R (R&D Systems). In words: SPR (BIAcore 2000); antibody captured, monomeric hIL-4R injected.
On to B1, for which the Kd stood at 2.05 nM and the T1/2 monomeric is 0.467 h.

The molecule B2 returned a Kd of 0.41 nM and a T1/2 monomeric of 2 h.

Molecule B3 registered a Kd of 0.05 nM and a T1/2 monomeric of 8 h.

The molecule B4 gave a Kd of 0.23 nM and a T1/2 monomeric of 2.4 h.

A further assay has as its target T1, dimeric hIL-4R-hFc. Briefly: ELISA; antibody titrated against 25 pM hIL-4R-Fc, free receptor caught on hIL-4 plate.
B1 had an IC50 of 0.067 nM.

For the molecule B2, the half-inhibitory concentration (IC50) turned out to be 0.099 nM.

Turning to B3, the IC50 was 0.035 nM.

Turning to B4, the IC50 came to 0.037 nM.

Another assay deals with T2, hIL-4R on cells (STAT6-transfected …). Briefly: cell-based or functional assay. The source holds these as a separate data set.
With B1, the “STAT6 Bioassay IC50 (HEK293 STAT6 luciferase, 40 pM hIL-13)” value worked out at 0.3 nM and the “TF1 Bioassay IC50 (proliferation, 150 pM hIL-13)” value is 1 nM.

Regarding B2, the “STAT6 Bioassay IC50 (HEK293 STAT6 luciferase, 40 pM hIL-13)” value was determined as 0.37 nM and the “TF1 Bioassay IC50 (proliferation, 150 pM hIL-13)” value amounted to 1.6 nM.

As to B3, the “STAT6 Bioassay IC50 (HEK293 STAT6 luciferase, 40 pM hIL-13)” value was 0.14 nM and the “TF1 Bioassay IC50 (proliferation, 150 pM hIL-13)” value came out at 0.44 nM.

Turning to B4, the “STAT6 Bioassay IC50 (HEK293 STAT6 luciferase, 40 pM hIL-13)” value was found to be 70 pM and the “TF1 Bioassay IC50 (proliferation, 150 pM hIL-13)” value is 0.46 nM.

A further assay concerns the target T4, mouse IL-4R. Briefly: binding affinity test of Example 2 (method not restated).
As for B1, the binding result was “no binding”.

Turning to B2, the binding result is recorded as “no binding”.

As to B3, the binding result is “no binding”.

Take B4: the binding result was “no binding”.

For another assay, the target named is T1, dimeric hIL-4R-hFc. In words: SPR; reduction of hIL-4 (50 nM) binding to captured hIL-4R-hFc after antibody; competitor hIL-4. From the text: Purified hIL-4R-hFc molecules were captured by goat anti-human IgG polyclonal antibody immobilized on CM-5 to a density of 260 RU, to prepare a receptor-coated surface.
For B1, the “% Inhibition (BIAcore)” value was 96%.

Regarding B2, the “% Inhibition (BIAcore)” value is 96%.

For the molecule B3, the “% Inhibition (BIAcore)” value stood at 95%.

In the case of B4, the “% Inhibition (BIAcore)” value turned out to be 95%.

Source of the values: patent US20080160035A1 (Regeneron, published 2008).
